Our source for the Kd values is PMC10538664.

For the assay, the target named is prototype SARS-CoV-2 tandem RBD homotrimer (PPP) (SARS-CoV-2) (UniProt P0DTC2). Description: SPR.
As to C022, the Kd was found to be 1.8 nM.
For the substance CR3022, the Kd came out at 80.6 nM.
In turn, CV07-270 gave a Kd of 11.7 nM. This Kd lies about 6.9-fold lower than the previous one.
For the substance REGN10933, the Kd came to 5.4 nM.
In turn, S309 yielded a Kd of 0.4 nM. Against the preceding substance, the Kd is about 14-fold lower.
